{"source": "patent US20120271036A1", "about": "(UNIVERSITY OF ROCHESTER, published 2012)", "binders": {"B1": {"name": "BC: EloB (1-118) / EloC (17-112) heterodimer (other)", "chain 1": "MGDVFLMIRRHKTTIFTDAKESSTVFELKRIVEGILKRPPDEQRLYKDDQLLDDGKTLGECGFTSQTARPQAPATVGLAFRADDTFEALCIEPFSSPPELPDVMKPQDSGSSANEQAVQENLYFQ", "chain 2": "MGYVKLISSDGHEFIVKREHALTSGTIKAMLSGPGQFAENETNEVNFREIPSHVLSKVCMYFTYKVRYTNSSTEIPEFPIAPEIALELLMAANFLDC", "notes": "also called EloBC; EloBC heterodimer"}, "B2": {"name": "Cul5(N), human Cullin5 residues 2-384 (V341R, L345D) after removal of GST (other)", "chain": "GPMHMGGSTSNLLKNKGSLQFEDKWDFMRPIVLKLLRQESVTKQQWFDLFSDVHAVCLWDDKGPAKIHQALKEDILEFIKQAQARVLSHQDDTALLKAYIVEWRKFFTQCDILPKPFCQLEITLMGKQGSNKKSNVEDSIVRKLMLDTWNESIFSNIKNRLQDSAMKLVHAERLGEAFDSQLVIGVRESYVNLCSNPEDKLQIYRDNFEKAYLDSTERFYRTQAPSYLQQNGVQNYMKYADAKLKEEEKRALRYLETRRECNSVEALMECCVNALVTSFKETILAECQGMIKRNETEKLHLMFSLMDKVPNGIEPMLKDLEEHIISAGLADMVAAAETITTDSEKYREQLDTLFNRFSKLVKEAFQDDPRFLTARDKAYKAVVNDATIFK", "notes": "also called untagged Cul5(N)"}}, "key": {"[1]": {"biological_target": "the molecule itself", "test": "sedimentation velocity AUC; self-association"}, "[2]": {"biological_target": "T1, BCvif95-192: EloB (1-118) / EloC (17-112) / Vif (95-192) (human; HIV-1 HXB2, UniProt P69723 95-192)"}, "[3]": {"biological_target": "T2, BCvifVF: EloB (1-118) / EloC (17-112) / vif (95-192) (A123V, L124F) (human; HIV-1 HXB2, UniProt P69723 95-192)"}, "[4]": {"biological_target": "T3, BCvifSS: EloB (1-118) / EloC (17-112) / vif (95-192) (A123S, L124S) (human; HIV-1 HXB2, UniProt P69723 95-192)"}, "[5]": {"biological_target": "T1, BCvif95-192: EloB (1-118) / EloC …", "test": "ITC, 30 C; Cul5(N) titrated into the complex"}, "[6]": {"biological_target": "T1, BCvif95-192: EloB (1-118) / EloC …", "test": "ITC, opposite injection order; BCvif95-192 titrated into Cul5(N)"}, "[7]": {"biological_target": "T4, EloB(1-118)/EloC(17-112)/Vif(95-173) (human; HIV-1 (group M, subtype B), UniProt Q15370 2-118; Q15369 18-112; P31820 95-173)", "test": "ITC, 30 C"}, "[8]": {"biological_target": "T5, BCvif95-155: EloB (1-118) / EloC (17-112) / Vif (95-155) (human; HIV-1 HXB2, UniProt P69723 95-155)", "T5 construct": "range 95-155", "test": "ITC, 30 C"}, "[9]": {"biological_target": "T6, BCvif95-160: EloB (1-118) / EloC (17-112) / Vif (95-160) (human; HIV-1 HXB2, UniProt P69723 95-160)", "T6 construct": "range 95-160", "test": "ITC, 30 C"}, "[10]": {"biological_target": "T7, EloB(1-104)/EloC(17-112)/Vif(102-173) (human; HIV-1 (group M, subtype B), UniProt Q15370 2-104; Q15369 18-112; P31820 102-173)", "test": "ITC, 30 C"}, "[11]": {"biological_target": "B1", "test": "ITC, 30 C; untagged Cul5(N) titrated into EloBC"}, "[12]": {"biological_target": "T3, BCvifSS: EloB (1-118) / EloC (17-112) / …", "test": "ITC, 30 C; A123S/L124S mutant"}, "[13]": {"biological_target": "T2, BCvifVF: EloB (1-118) / EloC (17-112) / …", "test": "ITC, 30 C; A123V/L124F mutant"}, "[14]": {"biological_target": "B1"}, "[15]": {"biological_target": "T4, EloB(1-118)/EloC(17-112)/Vif(95-173)"}, "[16]": {"biological_target": "T6, BCvif95-160: EloB (1-118) / EloC …"}, "[17]": {"biological_target": "T7, EloB(1-104)/EloC(17-112)/Vif(102-173)"}}, "data": [{"binder": "B1", "values": [{"measurement": "binding result", "setting": "[1]", "value": "no binding (tested: 0.19, 0.37, and 1.88 mg ml^-1)"}]}, {"binder": "B2", "values": [{"measurement": "ΔH", "setting": "[2]", "value": -5210}, {"measurement": "ΔS", "setting": "[2]", "value": 12.6}, {"measurement": "ΔH", "setting": "[3]", "value": -4550}, {"measurement": "ΔS", "setting": "[3]", "value": 13.1}, {"measurement": "ΔH", "setting": "[4]", "value": -7380}, {"measurement": "ΔS", "setting": "[4]", "value": 4.97}, {"measurement": "Kd", "setting": "[5]", "value": 327, "unit": "nM"}, {"measurement": "Kd", "setting": "[6]", "value": 420, "unit": "nM"}, {"measurement": "Kd", "setting": "[7]", "value": 337, "unit": "nM"}, {"measurement": "Kd", "setting": "[8]", "value": 213, "unit": "nM"}, {"measurement": "Kd", "setting": "[9]", "value": 285, "unit": "nM"}, {"measurement": "Kd", "setting": "[10]", "value": 288, "unit": "nM"}, {"measurement": "Kd", "setting": "[11]", "value": 6350, "unit": "nM"}, {"measurement": "Kd", "setting": "[12]", "value": 397, "unit": "nM"}, {"measurement": "Kd", "setting": "[13]", "value": 847, "unit": "nM"}, {"measurement": "N", "setting": "[14]", "value": 0.924}, {"measurement": "ΔH", "setting": "[14]", "value": -9200}, {"measurement": "ΔS", "setting": "[14]", "value": -6.39}, {"measurement": "N", "setting": "[15]", "value": 0.869}, {"measurement": "ΔH", "setting": "[15]", "value": -5630}, {"measurement": "ΔS", "setting": "[15]", "value": 11.1}, {"measurement": "ΔH", "setting": "[16]", "value": -5090}, {"measurement": "ΔS", "setting": "[16]", "value": 13}, {"measurement": "N", "setting": "[17]", "value": 0.826}, {"measurement": "ΔH", "setting": "[17]", "value": -4950}, {"measurement": "ΔS", "setting": "[17]", "value": 13.6}]}]}
